{
  "source": "patent US20230374149A1",
  "about": "(SHANGHAI HANSOH BIOMEDICAL, published 2023)",
  "target": "T1, His-tagged human TROP-2 (TROP-2-His), SinoBiologics 10428-H08H (human, UniProt P09758 27-274)",
  "T1 construct": "Bought protein; also called TROP-2 His protein; human TROP-2 His antigen; not shown: His tag",
  "T1 sequence": "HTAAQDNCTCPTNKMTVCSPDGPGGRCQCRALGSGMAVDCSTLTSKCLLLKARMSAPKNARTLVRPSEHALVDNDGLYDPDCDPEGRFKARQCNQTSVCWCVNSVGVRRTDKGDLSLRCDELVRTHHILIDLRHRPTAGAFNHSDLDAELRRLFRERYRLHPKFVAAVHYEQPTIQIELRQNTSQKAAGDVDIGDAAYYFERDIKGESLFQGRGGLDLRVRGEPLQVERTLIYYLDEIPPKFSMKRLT",
  "assay": "indirect ELISA, coated TROP-2 His",
  "data": [
    {"binder": "murine monoclonal antibody M1 (antibody, V domains shown, It is called a murine antibody, but the ELISA used a goat-anti-human secondary antibody) VH: QVQLQQPGAELVRPGASVKLSCRASGYTFTNYWMNWVKQRPEQGLEWIGRIDPNDSETHYNQKFKDRAILTVDKASNTAYMQLSGLTSEDSAVHYCARSGFGSTYWFFDVWGAGTTVTVSS VL: DIVMTQSHKFMSTSVGDRVSITCKASQDVSTAVAWYQQKPGQSPKLLIYSASYRYTGVPDRFAGSGYGTDFTFTISSVQTEDLTVYHCQQHYSTPLTFGPGTRLELK", "values": [
      {"measurement": "EC50", "value": 560, "unit": "pM"}
    ]}
  ]
}
